The record followed here is article PMC3511393, “Identification and Characterisation of the RalA-ERp57 Interaction: Evidence for GDI Activity of ERp57” (PLoS ONE, 2012).

The target of this test is T1, 6xHis-ERp57 (human, UniProt P30101 24-505).
T1 construct: ERp57, human cDNA without the region encoding the N-terminal signal peptide (amino acids 1-23); also called wt ERp57; wild-type 6xHis-ERp57; source: E. coli, purified (Ni-NTA); not shown: 6xHis, N-terminal, kept
T1 sequence (looked up): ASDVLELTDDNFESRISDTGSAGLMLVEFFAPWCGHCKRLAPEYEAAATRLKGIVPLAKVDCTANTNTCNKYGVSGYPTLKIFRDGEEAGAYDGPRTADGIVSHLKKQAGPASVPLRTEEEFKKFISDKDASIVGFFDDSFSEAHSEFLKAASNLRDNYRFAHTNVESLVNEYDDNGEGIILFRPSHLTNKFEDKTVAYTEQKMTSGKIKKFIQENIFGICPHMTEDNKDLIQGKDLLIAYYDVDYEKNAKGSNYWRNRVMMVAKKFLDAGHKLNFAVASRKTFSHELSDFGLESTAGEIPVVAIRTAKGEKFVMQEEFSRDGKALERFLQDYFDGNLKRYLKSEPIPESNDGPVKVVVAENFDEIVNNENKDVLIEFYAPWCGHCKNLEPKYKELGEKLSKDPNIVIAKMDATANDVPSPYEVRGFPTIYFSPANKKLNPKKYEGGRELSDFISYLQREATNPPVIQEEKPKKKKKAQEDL
Kind of test: pull-down; GST-RalA loaded with GDP as bait; purified 6xHis-ERp57 or mutants; Western blot with anti-6xHis antibody; with or without 1 mM DTT. Conditions: both partners purified. In general terms: In western blotting, separated proteins are transferred to a membrane and probed.

B1: GST-RalA (natural protein, simian, UniProt P63320 1-206, looked up)
chain: MAANKPKGQNSLALHKVIMVGSGGVGKSALTLQFMYDEFVEDYEPTKADSYRKKVVLDGEEVQIDILDTAGQEDYAAIRDNYFRSGEGFLCVFSITEMESFAATADFREQILRVKEDENVPFLLVGNKSDLEDKRQVSVEEAKNRADQWNVNYVETSAKTRANVDKVFFDLMREIRARKMEDSKEKNGKKKRKSLAKRIRERCCIL
notes: RalA, simian cDNA (pGEX-2T-RalA from Yoshito Kaziro); loaded with GDP or GTP immediately before use; Nucleotide state (GDP or GTP) is told by the assay; also called RalA-GDP; RalA-GTP; source: when necessary eluted with reduced GSH and dialysed; not shown: GST, N-terminal, kept
As for B1, the binding result is on record as “binds”.
